# Results reported in patent US11214614B2, “LTBP complex-specific inhibitors of TGFβ and uses thereof” (Scholar Rock, Inc., priority 2019, dated 2022).
# Substitutions are numbered along the chain they refer to.
# B1: SR-AB22: second-round (CDR-H3 mutagenesis) antibody, lineage SR-AB14; CDRs SEQ ID NO: 108-113 (antibody, V domains shown)
# VH: QVQLVESGGGVVQPGRSLRLSCAASGFTFRSYVMHWVRQAPGKGLEWVAVISHEGSLKYYADSVKGRFTISRDNSKNTLYLQMNSLRAEDTAVYYCAVPRIAARRGGFGYWGQGTLVTVSS
# VL: NFMLTQPHSVSESPGKTVTISCTRSSGNIDNNYVQWYQQRPGSSPTTVIYEDNQRPSGVPDRFSGSIDSSSNSASLTISGLKTEDEADYYCQSYDSDNQGVVFGGGTKLTVL
# B2: SR-AB23: second-round (CDR-H3 mutagenesis) antibody, lineage SR-AB14; CDRs SEQ ID NO: 116-121 (antibody, V domains shown)
# VH: B1 VH with V98R
# VL: B1 VL
# Columns and labels:
# proTGFβ1 C4S = proTGFβ1 C4S (Homo sapiens, UniProt P01137, C33S); assay: Octet binding of immobilized cycle 2 antibodies to C4S antigen; conditions: antibody immobilized (loading sample)
# Excerpt: (§1) A modified proTGFβ1 complex (proTGFβ1 C4S) in which the cysteine residue at position 4 of the pro-domain has been substituted with a serine residue (described in WO 2014/182676) was used to assess antibody binding to C4S antigen by Octet. Cycle 2 antibodies were immobilized and tested against 3 antigens. As shown in the Tables below, robust antibody binding to LTBP-1 proTGFβ1 antigen (Table 23) and proTGFβ1C4S antigen was observed (Table 24), while binding to LRRC33 proTGFβ1 antigen was not observed (Table 25).
# murine LTBP1-proTGFβ1 = biological target: T1, murine LTBP1-proTGFβ1 (Mus musculus, UniProt P04202+Q8CG19); assay: Murine LTBP overexpression caga assay: LN229 cells co-transfected with mouse LTBP1 and mouse proTGFβ1, CAGA12 reporter cells; format: cell-based; conditions: overexpressed murine LTBP1-proTGFβ1
# T1 construct: expressed in transfected cells; host or cells: LN229
# Protocol: Additionally, the ability of SR-AB2 to inhibit LTBP1/3-proTGFβ1 in a cell-based assay was also conducted. As essentially described above in Example 2, LN229 cells were seeded on fibronectin pre-coated assay wells and directly transfected with the indicated DNA molecules.
# LTBP complex-specific antibodies from the first round of affinity maturation/optimization (i.e., SR-AB14, SR-AB16, SR-AB17, SR-AB18, SR-AB19) were selected for a second round of affinity maturation/optimization (i.e., CDR-H3 mutagenesis as described herein) and particular progeny antibodies (SR-AB20, SR-AB21, SR-AB22, SR-AB23, SR-AB24, SR-AB25, SR-AB26, SR-AB27, SR-AB28, and SR-AB29) were assessed for their ability to inhibit TGFβ activity using LN229 cells. For the assays depicted in FIGS. 13A, 13B, 14A, and 14B the following protocol was used, which is a modified version of Assay II in Example 2. […]
# On day 0, prior to cell seeding, assay plates were coated with Fibronectin (LTBP over expression assay only). […] The cell pellet was resuspended in D10 media and viable cells per ml counted. […]
# huLRRC33 proTGFβ1 = huLRRC33 proTGFβ1 (Homo sapiens, UniProt P01137); assay: Octet binding of immobilized cycle 2 antibodies; design: modified human kappa light chain signal peptide (N); Histidine tag (C); conditions: antibody immobilized (loading sample)
# Excerpt: as §1
# huLRRC33 proTGFβ1, sequence (P01137 30-390): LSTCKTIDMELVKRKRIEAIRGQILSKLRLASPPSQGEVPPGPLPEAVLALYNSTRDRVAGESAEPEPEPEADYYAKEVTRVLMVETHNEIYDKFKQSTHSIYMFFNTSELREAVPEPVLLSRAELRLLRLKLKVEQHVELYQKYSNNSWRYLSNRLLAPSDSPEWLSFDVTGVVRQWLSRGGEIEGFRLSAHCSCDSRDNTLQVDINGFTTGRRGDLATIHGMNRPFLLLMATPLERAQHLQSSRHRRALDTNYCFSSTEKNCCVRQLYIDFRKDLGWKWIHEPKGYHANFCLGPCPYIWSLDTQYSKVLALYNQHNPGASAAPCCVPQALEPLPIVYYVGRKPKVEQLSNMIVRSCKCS
# huLRRC33 proTGFβ1, sequence (Q86YC3 with tags, fused parts or gaps partner limits assumed): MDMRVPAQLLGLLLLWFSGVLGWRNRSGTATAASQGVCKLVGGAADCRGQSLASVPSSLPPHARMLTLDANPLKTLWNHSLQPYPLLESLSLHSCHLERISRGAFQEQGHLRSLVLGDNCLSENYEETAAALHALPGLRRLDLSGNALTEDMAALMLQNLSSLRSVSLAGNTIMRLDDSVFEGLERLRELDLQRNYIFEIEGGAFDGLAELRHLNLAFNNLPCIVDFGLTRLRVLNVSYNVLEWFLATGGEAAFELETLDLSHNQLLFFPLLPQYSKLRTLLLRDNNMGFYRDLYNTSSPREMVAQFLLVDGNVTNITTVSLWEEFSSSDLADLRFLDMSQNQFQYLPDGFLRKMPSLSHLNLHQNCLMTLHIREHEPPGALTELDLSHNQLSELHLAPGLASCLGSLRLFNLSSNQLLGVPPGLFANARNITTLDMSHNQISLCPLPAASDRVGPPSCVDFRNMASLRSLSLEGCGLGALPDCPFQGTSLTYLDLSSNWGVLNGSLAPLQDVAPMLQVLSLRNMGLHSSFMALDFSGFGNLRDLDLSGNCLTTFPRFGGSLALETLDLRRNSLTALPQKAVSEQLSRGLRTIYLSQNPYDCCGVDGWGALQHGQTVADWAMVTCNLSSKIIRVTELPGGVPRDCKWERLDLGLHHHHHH
# proTGFβ1 C4S, sequence (P01137 30-390 C33S): as the sequence (P01137 30-390) above, with C4S counted along it
# T1 sequence (P04202 30-390): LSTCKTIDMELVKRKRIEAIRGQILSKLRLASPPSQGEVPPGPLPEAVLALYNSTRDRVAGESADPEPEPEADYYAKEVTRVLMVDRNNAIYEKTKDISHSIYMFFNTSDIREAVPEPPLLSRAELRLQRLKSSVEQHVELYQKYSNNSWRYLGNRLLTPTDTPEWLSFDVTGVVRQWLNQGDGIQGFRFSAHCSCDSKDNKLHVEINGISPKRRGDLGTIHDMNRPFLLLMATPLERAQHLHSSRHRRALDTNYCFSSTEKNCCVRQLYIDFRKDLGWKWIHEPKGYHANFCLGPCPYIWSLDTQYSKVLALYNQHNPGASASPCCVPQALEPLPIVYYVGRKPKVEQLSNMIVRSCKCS
# T1 sequence (Q8CG19 339-1712 limits assumed): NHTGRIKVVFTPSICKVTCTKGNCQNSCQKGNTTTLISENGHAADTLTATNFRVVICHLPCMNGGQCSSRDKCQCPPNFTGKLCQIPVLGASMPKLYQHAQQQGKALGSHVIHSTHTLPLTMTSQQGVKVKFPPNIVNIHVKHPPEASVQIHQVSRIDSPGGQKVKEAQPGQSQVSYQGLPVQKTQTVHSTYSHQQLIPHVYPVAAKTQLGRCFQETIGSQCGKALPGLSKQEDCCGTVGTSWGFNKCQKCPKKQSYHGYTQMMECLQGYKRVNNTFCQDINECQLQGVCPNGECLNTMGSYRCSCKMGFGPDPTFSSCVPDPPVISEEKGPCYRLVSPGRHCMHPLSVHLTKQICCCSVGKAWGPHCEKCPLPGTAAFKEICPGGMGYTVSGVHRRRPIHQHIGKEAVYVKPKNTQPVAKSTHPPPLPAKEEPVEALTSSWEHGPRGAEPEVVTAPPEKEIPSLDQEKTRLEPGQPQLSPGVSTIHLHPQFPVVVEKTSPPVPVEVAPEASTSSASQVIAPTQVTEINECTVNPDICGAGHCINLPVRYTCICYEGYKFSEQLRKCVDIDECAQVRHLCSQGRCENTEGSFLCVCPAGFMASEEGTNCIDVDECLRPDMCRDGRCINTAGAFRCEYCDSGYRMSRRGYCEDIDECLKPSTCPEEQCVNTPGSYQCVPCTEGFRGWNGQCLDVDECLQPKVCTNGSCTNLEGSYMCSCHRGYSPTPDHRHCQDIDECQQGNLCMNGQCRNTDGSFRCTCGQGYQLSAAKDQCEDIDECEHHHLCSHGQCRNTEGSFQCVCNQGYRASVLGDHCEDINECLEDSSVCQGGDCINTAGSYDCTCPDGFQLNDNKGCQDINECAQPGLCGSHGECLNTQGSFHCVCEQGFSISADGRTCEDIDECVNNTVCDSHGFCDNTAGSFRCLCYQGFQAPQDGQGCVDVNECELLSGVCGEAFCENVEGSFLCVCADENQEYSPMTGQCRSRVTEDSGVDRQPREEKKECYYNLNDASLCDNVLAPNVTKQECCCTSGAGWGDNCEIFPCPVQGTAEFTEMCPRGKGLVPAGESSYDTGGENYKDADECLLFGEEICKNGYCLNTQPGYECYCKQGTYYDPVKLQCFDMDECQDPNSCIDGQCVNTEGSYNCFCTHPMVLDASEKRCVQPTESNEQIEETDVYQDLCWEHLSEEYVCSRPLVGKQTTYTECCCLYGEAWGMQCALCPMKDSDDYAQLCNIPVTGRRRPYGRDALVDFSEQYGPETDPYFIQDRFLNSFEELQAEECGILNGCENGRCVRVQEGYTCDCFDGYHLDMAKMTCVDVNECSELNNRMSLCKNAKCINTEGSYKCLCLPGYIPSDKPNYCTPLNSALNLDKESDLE
Molecule,"Response, binding to human TGFb1 C4S (proTGFβ1 C4S) [nm]","Inhibition of TGFβ1 activation (TGFβ activity, luciferase) (murine LTBP1-proTGFβ1)","Response, binding to human LRRC33 proTGFb1 (huLRRC33 proTGFβ1) [nm]"
B1,0.2937,improved potency,0.1329
B2,0.2263,improved potency,0.0233
